What all share (assay): cell-based or functional assay
Test [1] deals with 92RW020 Env on pseudovirus (HIV-1 92RW020).
For test [2], the target named is ADA Env on pseudovirus (HIV-1 ADA).
The target in test [3] is HIV-1 JR-CSF Env on pseudovirus (HIV-1 JR-CSF) (UniProt P20871).
In test [4] the target is JR-CSF(1309A) Env on pseudovirus (HIV-1 JR-CSF) (UniProt P20871).
Test [5] has as its target JR-CSF(Y318A) Env on pseudovirus (HIV-1 JR-CSF) (UniProt P20871).
Test [6] concerns the target JR-FL(E168K) Env on pseudovirus (HIV-1 JR-FL).

Where a chain is given by its changes, count along the chain named.

B1: 1503_H05 (PG16) (TCN-119) (antibody, V domains shown)
VH: QEKLVESGGGVVQPGGSLRLSCLASGFTFHKYGMHWVRQAPGKGLEWVALISDDGMRKYHSDSMWGRVTISRDNSKNTLYLQFSSLKVEDTAMFFCAREAGGPIWHDDVKYYDFNDGYYNYHYMDVWGKGTIVTVSS
VL: QSALTQPASVSGSPGQTITISCNGTRSDVGGFDSVSWYQQSPGKAPKVMVFDVSHRPSGISNRFSGSKSGNTASLTISGLHIEDEGDYFCSSLTDRSHRIFGGGTKVTVLG
With B1, the IC50 (ug/ml), pseudovirus neutralization, TZM-bl assay in test [1] is 0.02 µg/mL; in test [2], 0.003 µg/mL; in test [3] it was 0.001 µg/mL; in test [4], above 1 µg/mL; in test [5] it was above 1 µg/mL; in test [6], 0.002 µg/mL.

B2: 1469_M23 (PG16) (TCN-118) (antibody, V domains shown)
VH: B1 VH with I132T
VL: B1 VL with K44R, V107L
On to B2, for which the IC50 (ug/ml), pseudovirus neutralization, TZM-bl assay in test [1] was 0.05 µg/mL; in test [2] it was 0.005 µg/mL; in test [3] it was 0.002 µg/mL; in test [4], above 1 µg/mL; in test [5] it was above 1 µg/mL; in test [6] it was 0.005 µg/mL.

B3: 1456_A12 (PG16) (TCN-117) (antibody, V domains shown)
VH: B1 VH with Q1H, K3Q, S7A, K87R, I132K
VL: B1 VL with R26S, S27R, I60M, V107L
As to B3, the IC50 (ug/ml), pseudovirus neutralization, TZM-bl assay in test [1] is 0.05 µg/mL; in test [2] it was 0.005 µg/mL; in test [3], 0.001 µg/mL; in test [4] it was above 1 µg/mL; in test [5] it was above 1 µg/mL; in test [6] it was 0.003 µg/mL.

B4: 1489_I13 (PG16) (TCN-120) (antibody, V domains shown)
VH: B1 VH with K3Q, V5L, D62N, I132T
VL: B1 VL with R26S
For B4, the IC50 (ug/ml), pseudovirus neutralization, TZM-bl assay was 0.03 µg/mL in test [1]; 0.008 µg/mL in test [2]; 0.002 µg/mL in test [3]; above 1 µg/mL in test [4]; above 1 µg/mL in test [5]; 0.005 µg/mL in test [6].
